{
  "source": "the DeepSol protein solubility set",
  "experiment": "soluble on expression in E. coli; label from the status in PepcDB or PDB records",
  "data": [
    {"sequence": "MGSDKIHHHHHHQISGDTVKIGFITDMSGLYADIDGPGGVEAIKLAISDMKGTVAGKKIELVYADHQNKADVAASKAREWFDTQGVDMLIGGTNSGTALAMTKVAAEKKKPFIAIGAGTSRISNEDCTPYSIHYAYDTVALANGTGSAVTKAGGKSWYFLTADYAFGQSLQNDTSNVVTKSGGQVLGSVKHPLSASDFSSFLLQAQSSKAQILGLANAGGDTINSIKAANEFGITKTMKLAGLLMFINDIHSLGLNATQGMYMTDSWYWNQSPEARAWSRRFFEKMKRMPSSIQAADYSAAMHFLKAVEAAKTDDGDKVMAQMKAMPINDFYAKGSIRKEDGRGIHDMFLLQVKSQQESTEPWDYFKVVEKIPGEQAFTKLADSKCPLVKK", "values": [
      {"measurement": "soluble on expression in E. coli", "result": "not soluble"}
    ]},
    {"sequence": "MGSDKIHHHHHHMFSRRFRRLSPRDIIGGDVTLRRPSVAEALAVASASFIASFYVSGETILLAAGLALGGLAIASSLPARAGRVFIAGIRLEFMIPGRIVEGEVRTGRLLVENRTLNPMVLKIILKPEEGLEVEPERAEVHAPPLSRRSISLVVKPRFGRYKLIASIEEARSPLGLWSLQPEQPQTAVEVLATPKPEVVSEDISVLTGPGSLDRGREGSGLDYRSFREYQPGDDPRSIEWKLTGRRGAPVVREVEGAESSKPVRLVLAIRPQHYRKPLYNSPYGAAARRLYTISMMLAEEGVRHSVLLPGARGFQELEISTPRDTLELGLALAIYTPEDPPIDYAYLIEDLARRDSPVIVVSPKGTLGEIVDKDRVYVLEV", "values": [
      {"measurement": "soluble on expression in E. coli", "result": "not soluble"}
    ]},
    {"sequence": "MGSDKIHHHHHHMPSLFSLYRKIFFGRKPGWDQQPLPHIKVTAPHVTVSETKVSQYAQVCGFQFDGKVLPPTYLYVMAFRLHAVIFTHDGITFPLLGMIHLKNRIQVYRPVTVDETFSLECALTTSRETDSGLEFEFVSKAFVGEELVWESLSTYLYRIDVAGRRVRPPKAIDMAWETPQSWRLSEDLGRRYAKASGDYNLIHLHPVLSKRFGFDRVLAHGMWSKARCLAELMPSIGDRPFTVDVTFKLPLLMPADVGFGYEQNTDNMVFELRDSKGRRPHLSGDVQF", "values": [
      {"measurement": "soluble on expression in E. coli", "result": "not soluble"}
    ]},
    {"sequence": "SNAMKYTVYLFDFDYTLADSSRGIVTCFRSVLERHGYTGITDDMIKRTIGKTLEESFSILTGITDADQLESFRQEYSKEADIYMNANTILFPDTLPTLTHLKKQGIRIGIISTKYRFRILSFLRNHMPDDWFDIIIGGEDVTHHKPDPEGLLLAIDRLKACPEEVLYIGDSTVDAGTAAAAGVSFTGVTSGMTTAQEFQAYPYDRIISTLGQLISVPEDKSGCPL", "values": [
      {"measurement": "soluble on expression in E. coli", "result": "soluble"}
    ]},
    {"sequence": "MWKITENLYLAQLPMIVGPTSKQEFSKNDIKRVLTLTTEPISEKQKIGGVDYKFLHLLDMPDEPILDNAILETAVLYINEGVEKEENVGVHCLAAVSRSVSICAAYLMYKNQWPVEKALKMIESVRKTIGPNAGFLAQLKIWERSGMSFSADQYKNLKIDIPGITCVDSKTIWRQPVIDDQTKVRFKCRQCRKVIFNSDNIVHPLAEACQKYLIEPMAWLNVSGATCSVSHTCGAKLGTFIASGSKCNGCNKFVRQWIFINRTKLDKVEIAT", "values": [
      {"measurement": "soluble on expression in E. coli", "result": "not soluble"}
    ]},
    {"sequence": "MDYRVLLYYKYVTIDDPETFAAEHLKFCKEHHLKGRILVSTEGINGTLSGTKEDTDKYIEHMHADNRFADLTFKIDEAESHAFKKMHVRPRREIVALDLEEDINPREITGKYYSPKEFKAALEDENTVILDARNDYEYDLGHFRGAIRPDITRFRDLPEWVRNNKEQLDGKNIVTYCTGGIRCEKFSGWLVKEGFENVGQLHGGIATYGKDPETKGQYWDGKMYVFDERISVDVNQIDKTVIGKEHFDGTPCERYINCANPECNKQILVSEENEEKYLGACSYDCAKHERNRYVARHHISNEEWQRRLNNFKDVPEHTHA", "values": [
      {"measurement": "soluble on expression in E. coli", "result": "not soluble"}
    ]},
    {"sequence": "MGSDKIHHHHHHMKELVNILDFLPEELGEKIKPMFRVKQIYQWIYQKYANNFSDMSSLPKDLRLELARNFHFSPVKCVKNEQSKDGSIKYLFELIDGLRVESVLLPMKEEKIDAEGKRISHARYTICVSSQVGCKSGCSFCLTAKGGLKRNLSAGEIVGQILWIKKQNNIPYERRVNIVYMGMGEPLDNLKNVSKAVKILAQNEGLAISPRRQTISTSGLAKQIKELGQMNLGVLLAISLHAVNDELRTELMPINKAYNIAAIMDAVREFPIDQRKRVMFEYLLIDGINDKLEHAKELVKLLNGIKAKVNLILFNPHEGSLYKRPSLENAIKFQDLLSNKGVTCTIRESKGLDISAACGQLKERAKEQ", "values": [
      {"measurement": "soluble on expression in E. coli", "result": "not soluble"}
    ]},
    {"sequence": "MSIDMHCHLDLYPRPDLVAEESKRRGTYILSVTTTPKAWHGTSLLAKESQRIRTALGLHPQIAHQRSHELDLFDSLLSETKYVGEIGLDGGQGFKEHWDIQLKVFRHILNSVNRAGGKIMTIHSRGSASAVLDEIENIDGVAILHWFTGTPKQLERAIDLGCWFSVGPAMLDTIKGKALVLKIPKSRILTETDGPFAKFRNDPLMPWDSGIAEKQLAALWGISQMEVNAQLVDNFKVLCTS", "values": [
      {"measurement": "soluble on expression in E. coli", "result": "soluble"}
    ]},
    {"sequence": "PTSAPQHLTVEDVTDTTTTLKWRPPDRIGAGGIDGYLVEYCLEGSEEWVPANKEPVERCGFTVKDLPTGARILFRVVGVNIAGRSEPATLLQPVTIRE", "values": [
      {"measurement": "soluble on expression in E. coli", "result": "soluble"}
    ]},
    {"sequence": "MSLNPFQKIKSAVNKRQRFFINRTLQRKLTNQGMTVISANCVGAFILHDLHQPFNSPFVNLYLSPQDFLRYLQNIDFYLTQPLTFVQTEKSYPVGKLADLEIHFMHYHSEQEANEKWQLRTSRMKLDNLFIMMTDRDGVTEKDIQLFDQLPFKNKVIFTHKPYPAFKSAYYIKGFEKQNQVGDIFEFSGWNGKKYYDQFDYVKWFNHAEGHHHHHH", "values": [
      {"measurement": "soluble on expression in E. coli", "result": "soluble"}
    ]},
    {"sequence": "MGSDKIHHHHHHMDFYTIQFDDLANFESAGIFVNNKKWKHSHRILSSFEIIVMIEGVLPIQVSNTQYRVKPNKLLIIPPSAEHFGFEFTTSDIKFIWIHFNCSKFKINDEKSLFLSNIENSSIILPNYSNKLDVQRIILMSNHLLDITQENVNSIYLNLFLNSTLHEINYQTQKILKERQLSNLYLQPVREFIRINCFEDIDLGSIATHFNYNKSYLSRKYKKVMGIGIKQQINKFRISRAEYLLSNTSLTVQEISSQIGFNDEKYFMRLFRKNTNSTPSEYRKLYSQRHFNKE", "values": [
      {"measurement": "soluble on expression in E. coli", "result": "not soluble"}
    ]},
    {"sequence": "MGSDKIHHHHHHMTVRQIIQLAGTLDIPGLPQLDVTQDEISIANLTPLKLWAATAGWGASADDLGFEDRVTGNKIPLNGSATSSRLVNAFDGSQALSQGTAGAVLKDDSFSTAGSFTIAMNLCAINDELTCAPASSSVLPGSGQSYWFLASSAGKFRIGTTSLSTQFADYLGPLLSRTAWLRLILKYDRAVGTMTLYVNGVQQAKLTNDALKTLSLAPGLVMGGLVTTTATPTSPPCLMRSPMGFNSALSDSELALVDRYLSKTLY", "values": [
      {"measurement": "soluble on expression in E. coli", "result": "not soluble"}
    ]},
    {"sequence": "MDKFKSMTELKELTKEGKDWEIECENRSSIVTILALHGGGIEPATTELAYTIAHCGDYNYFSFKGMRSKGNNELHVTSTHYDDQIALDLVRGSQRTVAIHGCEGNESVAYIGGSDDRLIELITESLEDIGISVREAPHHISGTQENNIVNMTQTQGGVQLELTAQLRKELFKNRKSSRKNRENKDNWDDLMYDFADAMKKAIERALEHHHHHH", "values": [
      {"measurement": "soluble on expression in E. coli", "result": "soluble"}
    ]},
    {"sequence": "AIAVSRLEHPAGGYKKVFESCEELAEPIPAHVSGKIPAWLSGSLLRMGPGLFEIGDEPFNHLFDGQALIHKFDLKDGRVTYHRKFIRTDAYVRAMTEKRVVITELGTAAYPDPCKNIFSRFFTYFQGTEVTDNCSVNIYPIGEDFYACTETNFITKVNPDTLETIKKVDLCNYLSVNGLTAHPHIEADGTVYNIGNCFGKNMSLAYNIVKIPPLQEEKSDPLAMSKVLVQFPSSERFKPSYVHSFGMTENHFVFVETPVKINLLKFLTSWSIRGSNYMDCFESNDRMGTWFHLAAKNPGKYINNPSQ", "values": [
      {"measurement": "soluble on expression in E. coli", "result": "soluble"}
    ]},
    {"sequence": "MEEGVNMDIRPTRIELIRTRRRIRLAKKGLDLLKMKRSALIYEFLQISRTIRGMKENLRKEVVEALNIIKVASVLEGSLALERIANMSSDSRINVNSRNVMGVNIPTLEVSYNLSILSDVYRTVSVPVAIDDSIRRFQKLFYDLILIVEKENSLRNLLMEIDRTKRRSNAIENILIPRLEYQAKMIKMTLDERERDTFTTLKTIKKKIEAENDLEHHHHHH", "values": [
      {"measurement": "soluble on expression in E. coli", "result": "not soluble"}
    ]}
  ]
}
